# Reference: US20240116985A1 (published 2024)
# Starred links: 1 amine or outer side, 2 acyl side, 3 side chain; linkers in the order of their positions; H or OH if unused. Positions of bridges follow the written chain, without caps; N, C: chain ends. Non-standard residues stand in square brackets, D forms with d. Primed or numbered codes have the meaning given here. (4CF3PhAc)GA = (S)-2-amino-3-(N-(carboxymethyl)-2-(4-(trifluoromethyl)phenyl)acetamido)propanoic acid, O=C(Cc1ccc(C(F)(F)F)cc1)N(CC(=O)[*:3])C[C@H](N[*:1])C(=O)[*:2]; (PfPhAc)GA = (S)-2-amino-3-(N-(carboxymethyl)-2-(perfluorophenyl)acetamido)propanoic acid, O=C(Cc1c(F)c(F)c(F)c(F)c1F)N(CC(=O)[*:3])C[C@H](N[*:1])C(=O)[*:2]; (MePipAc)GA = (S)-2-amino-3-(N-(carboxymethyl)-2-(4-methylpiperazin-1-yl)acetamido)propanoic acid, CN1CCN(CC(=O)N(CC(=O)[*:3])C[C@H](N[*:1])C(=O)[*:2])CC1; (4AcMePip)GA = (S)-2-amino-3-(N-(carboxymethyl)-1-methylpiperidine-4-carboxamido)propanoic acid, CN1CCC(C(=O)N(CC(=O)[*:3])C[C@H](N[*:1])C(=O)[*:2])CC1; (NdiMeButC)GAbu = (S)-2-amino-4-(N-(carboxymethyl)-4-(dimethylamino)butanamido)butanoic acid, CN(C)CCCC(=O)N(CC[C@H](N[*:1])C(=O)[*:2])CC(=O)[*:3]; PyrS2″ = (S)-3-amino-1-((pent-4-en-1-yloxy)carbonyl)pyrrolidine-3-carboxylic acid (stapling residue), C=CCCCOC(=O)N1CC[C@@](N[*:1])(C(=O)[*:2])C1; (NdiMeButC)GA = (S)-2-amino-3-(N-(carboxymethyl)-4-(dimethylamino)butanamido)propanoic acid, CN(C)CCCC(=O)N(CC(=O)[*:3])C[C@H](N[*:1])C(=O)[*:2]; (Me2NPr)GA = (S)-2-amino-3-(N-(carboxymethyl)-3-(dimethylamino)propanamido)propanoic acid, CN(C)CCC(=O)N(CC(=O)[*:3])C[C@H](N[*:1])C(=O)[*:2]; (MorphAc)GA = (S)-2-amino-3-(N-(carboxymethyl)-2-morpholinoacetamido)propanoic acid, O=C(CN1CCOCC1)N(CC(=O)[*:3])C[C@H](N[*:1])C(=O)[*:2]; B5(4) = 2,2-bis(4-pentenyl)glycine = 2-amino-2-(pent-4-en-1-yl)hept-6-enoic acid (stitching residue), C=CCCCC(CCCC=C)(N[*:1])C(=O)[*:2]; PyrS2 = (S)-3-amino-1-((pent-4-en-1-yloxy)carbonyl)pyrrolidine-3-carboxylic acid, C=CCCCOC(=O)N1CC[C@@](N[*:1])(C(=O)[*:2])C1; (Pic)GA = (S)-2-amino-3-(N-(carboxymethyl)picolinamido)propanoic acid, O=C(c1ccccn1)N(CC(=O)[*:3])C[C@H](N[*:1])C(=O)[*:2]; B5(22) = 2-amino-2-(pent-4-en-1-yl)hept-6-enoic acid (two alkene side chains), C=CCCCC(CCCC=C)(N[*:1])C(=O)[*:2]; B5(3) = 2,2-bis(4-pentenyl)glycine (stitching residue), C=CCCCC(CCCC=C)(N[*:1])C(=O)[*:2]; Phe(3-COOH) = N[C@@H](Cc1cccc(C(=O)O)c1)C(=O)O; 2F3MeF = Cc1cccc(C[C@H](N[*:1])C(=O)[*:2])c1F; Phe(2-CF3) = N[C@@H](Cc1ccccc1C(F)(F)F)C(=O)O; Phe(3-Cl) = N[C@@H](Cc1cccc(Cl)c1)C(=O)O; Bta = N[C@@H](Cc1csc2ccccc12)C(=O)O; αAllylPro = C=CC[C@@]1(C(=O)O)CCCN1; tBuAla = CC(C)(C)C[C@H](N)C(=O)O; 3Thi = N[C@@H](Cc1ccsc1)C(=O)O; PyrS2(4) = not defined here; 4ClBztA = not defined here
# T1: B-cat-Halo (UniProt P35222 1-781)
# T1 sequence (looked up): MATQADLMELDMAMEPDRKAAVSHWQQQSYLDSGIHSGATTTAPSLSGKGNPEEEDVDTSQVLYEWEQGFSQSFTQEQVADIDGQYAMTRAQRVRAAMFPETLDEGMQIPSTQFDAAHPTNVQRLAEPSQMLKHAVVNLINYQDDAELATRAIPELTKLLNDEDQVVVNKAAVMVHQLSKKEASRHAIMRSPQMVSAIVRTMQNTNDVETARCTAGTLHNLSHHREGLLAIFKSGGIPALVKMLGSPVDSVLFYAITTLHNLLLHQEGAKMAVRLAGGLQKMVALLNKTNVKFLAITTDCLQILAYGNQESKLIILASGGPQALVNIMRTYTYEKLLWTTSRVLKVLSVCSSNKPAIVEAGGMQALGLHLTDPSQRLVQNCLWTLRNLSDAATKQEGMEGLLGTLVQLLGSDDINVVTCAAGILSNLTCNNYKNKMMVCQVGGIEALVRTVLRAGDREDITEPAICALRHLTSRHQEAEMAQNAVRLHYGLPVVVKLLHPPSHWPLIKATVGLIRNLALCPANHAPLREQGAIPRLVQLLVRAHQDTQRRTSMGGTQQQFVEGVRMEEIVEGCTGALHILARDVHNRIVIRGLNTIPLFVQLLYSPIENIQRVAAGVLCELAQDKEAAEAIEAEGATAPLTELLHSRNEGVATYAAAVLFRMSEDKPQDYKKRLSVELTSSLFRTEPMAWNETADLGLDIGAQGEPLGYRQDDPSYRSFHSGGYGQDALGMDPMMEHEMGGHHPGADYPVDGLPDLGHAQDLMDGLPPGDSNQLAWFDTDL
# T2: B-cat-Halo (beta-catenin HaloTag fusion expressed in HEK293 cells) (UniProt P35222 1-781)
# T2 sequence (looked up): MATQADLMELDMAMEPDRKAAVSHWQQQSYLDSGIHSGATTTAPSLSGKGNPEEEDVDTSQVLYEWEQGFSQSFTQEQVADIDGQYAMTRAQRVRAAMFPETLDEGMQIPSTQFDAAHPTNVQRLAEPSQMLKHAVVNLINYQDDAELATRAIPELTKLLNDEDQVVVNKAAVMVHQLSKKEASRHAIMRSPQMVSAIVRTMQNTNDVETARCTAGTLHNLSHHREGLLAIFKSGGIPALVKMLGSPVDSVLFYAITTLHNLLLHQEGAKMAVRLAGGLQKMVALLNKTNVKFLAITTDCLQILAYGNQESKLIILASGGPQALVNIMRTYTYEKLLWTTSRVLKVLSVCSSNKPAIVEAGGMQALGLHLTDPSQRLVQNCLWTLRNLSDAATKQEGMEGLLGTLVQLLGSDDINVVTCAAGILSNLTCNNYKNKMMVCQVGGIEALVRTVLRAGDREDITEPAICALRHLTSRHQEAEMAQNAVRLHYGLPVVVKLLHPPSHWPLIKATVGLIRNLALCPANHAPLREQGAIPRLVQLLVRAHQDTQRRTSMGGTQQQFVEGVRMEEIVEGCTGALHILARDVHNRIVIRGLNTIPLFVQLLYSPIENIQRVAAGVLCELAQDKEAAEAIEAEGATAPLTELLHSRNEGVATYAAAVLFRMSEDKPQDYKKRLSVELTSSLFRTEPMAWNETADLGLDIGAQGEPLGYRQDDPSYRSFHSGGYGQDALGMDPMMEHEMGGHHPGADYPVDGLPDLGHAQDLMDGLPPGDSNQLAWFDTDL
# Target: T1, B-cat-Halo
# Experiment: cell-based or functional assay
row,Binder,NanoBRET Abs IC50 [µM]
1,"Ac-[αAllylPro]D[tBuAla][B5(3)]D[Phe(3-COOH)]QAFL[PyrS2″][2F3MeF][Phe(3-Cl)]A-NH2 (staple 1-4, 4-11) [I-2227]",6.3
2,"Ac-[αAllylPro]D[tBuAla][B5(22)]D[(4CF3PhAc)GA]AAFL[PyrS2][3Thi][Bta]Q-NH2 (staple 1-4, 4-11) [I-2236]",15.3
3,"Ac-[αAllylPro]D[tBuAla][B5(22)]D[(Me2NPr)GA]AAFL[PyrS2][3Thi][Bta]Q-NH2 (staple 1-4, 4-11) [I-2234]",> 20
4,"Ac-[αAllylPro]D[tBuAla][B5(22)]D[(4AcMePip)GA]AAFL[PyrS2][3Thi][Bta]Q-NH2 (staple 1-4, 4-11) [I-2235]",> 20
5,"Ac-[αAllylPro]D[tBuAla][B5(3)]D[Phe(3-COOH)]QAFV[PyrS2(4)][3Thi][Phe(3-Cl)]A-NH2 (staple 1-4, 4-11; reading uncertain) [I-2225]",7.8
6,"Ac-[αAllylPro]D[tBuAla][B5(3)]D[(NdiMeButC)GA]AAFL[PyrS2″][3Thi][Bta]Q-NH2 (staple 1-4, 4-11) [I-2233]",> 20
7,"Ac-[αAllylPro]D[tBuAla][B5(3)]D[Phe(3-COOH)]AAFL[PyrS2″][2F3MeF][Phe(3-Cl)]S-NH2 (staple 1-4, 4-11) [I-2226]",10.6

# The next lines start with the values.
row,NanoBRET Abs IC50 [µM],Binder
1,17.7,"Ac-[αAllylPro]D[tBuAla][B5(22)]D[(PfPhAc)GA]AAFL[PyrS2][3Thi][Bta]Q-NH2 (staple 1-4, 4-11) [I-2241]"
2,24.3,"Ac-[αAllylPro]D[tBuAla][B5(22)]D[(Pic)GA]AAFL[PyrS2][3Thi][Bta]Q-NH2 (staple 1-4, 4-11) [I-2237]"
3,31.9,"Ac-[αAllylPro]D[tBuAla][B5(22)]D[(MorphAc)GA]AAFL[PyrS2][3Thi][Bta]Q-NH2 (staple 1-4, 4-11) [I-2239]"
4,21.4,"Ac-[αAllylPro]D[tBuAla][B5(3)]D[(PfBz)GA]AAFL[PyrS2(4)][3Thi][Bta]Q-NH2 (staple 1-4, 4-11; reading uncertain) [I-2242]"
5,> 20,"Ac-[αAllylPro]D[tBuAla][B5(22)]D[(MePipAc)GA]AAFL[PyrS2][3Thi][Bta]Q-NH2 (staple 1-4, 4-11) [I-2240]"
6,25.2,"Ac-[αAllylPro]D[tBuAla][B5(22)]D[(NdiMeButC)GAbu]AAFL[PyrS2][3Thi][Bta]Q-NH2 (staple 1-4, 4-11) [I-2243]"

# Target: T2, B-cat-Halo (beta-catenin HaloTag fusion …)
# Experiment: cell-based or functional assay
row,NanoBRET Abs IC50 [µM],Binder
1,6.1,"Ac-[αAllylPro]D[tBuAla][B5(4)]D[Phe(3-COOH)]QAFL[PyrS2″][Phe(2-CF3)][4ClBztA]A-NH2 (staple 1-4, 4-11; reading uncertain) [I-2491]"
2,4.2,"Ac-[αAllylPro]D[tBuAla][B5(4)]D[Phe(3-COOH)]QAFL[PyrS2″][Phe(2-CF3)][7ClBztA]A-NH2 (staple 1-4, 4-11) [I-2487]"
3,3.7,"Ac-[αAllylPro]D[tBuAla][B5(4)]D[Phe(3-COOH)]AAFL[PyrS2″][Phe(2-CF3)][7ClBztA]Q-NH2 (staple 1-4, 4-11) [I-2486]"
